Biological target: T1, NPAS4 170X-Myc/FLAG (c.508C>T nonsense variant) (human, UniProt Q8IUM7-1 1-169)
T1 sequence (looked up): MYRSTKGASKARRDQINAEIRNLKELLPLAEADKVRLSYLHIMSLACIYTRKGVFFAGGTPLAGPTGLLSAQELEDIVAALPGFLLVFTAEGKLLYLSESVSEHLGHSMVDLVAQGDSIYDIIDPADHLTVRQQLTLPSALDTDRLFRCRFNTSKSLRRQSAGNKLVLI
Experiment: cell-based or functional assay

B1: ARNT2-Strep (natural protein)
chain: not shown
- 6xCME firefly luciferase reporter gene activity in HEK293T (dual luciferase; ARNT2-FLAG as partner; printed for ARNT and ARNT2 alike): > 200 fold decrease relative to wildtype

From paper PMC7987981, “Molecular characterisation of rare loss-of-function NPAS3 and NPAS4 variants identified in individuals with neurodevelopmental disorders” (Scientific Reports, 2021)
